From article PMC7096168

B1: F2177Δ21 (dsDNA)
DNA 1: ATGCCTAAAAGTATGCAGAAATTTGTTCAACAAGTCTGCTTATGTGCACCCTCTCGCGATCGGTGGCATAACCAATCGAGGATTCAGCTCTTGAGCTACCTGCAAGCTTAAGGGCGACATCTATATCTCGCATAGTGTGCAGAACTGCTTGTTCCTAGTCAC
DNA 2: GTGACTAGGAACAAGCAGTTCTGCACACTATGCGAGATATAGATGTCGCCCTTAAGCTTGCAGGTAGCTCAAGAGCTGAATCCTCGATTGGTTATGCCACCGATCGCGAGAGGGTGCACATAAGCAGACTTGTTGAACAAATTTCTGCATACTTTTAGGCAT
B2: F2177 (dsDNA)
DNA 1: ATGCCTAAAAGTATGCAGAAATTTGTTCAACAAGTCTGCTTATGTGCACCCTCTCGCGATCGGTGGCATAACCAATCGAGGATTCAGCTCTTGAGCTACCTGCCGAAAGGGGCGCGGCGACCTTAAGGGCGACATCTATATCTCGCATAGTGTGCAGAACTGCTTGTTCCTAGTCAC
DNA 2: GTGACTAGGAACAAGCAGTTCTGCACACTATGCGAGATATAGATGTCGCCCTTAAGGTCGCCGCGCCCCTTTCGGCAGGTAGCTCAAGAGCTGAATCCTCGATTGGTTATGCCACCGATCGCGAGAGGGTGCACATAAGCAGACTTGTTGAACAAATTTCTGCATACTTTTAGGCAT
B3: F2177ΔSu (dsDNA)
DNA 1: GTTCAACAAGTCTGCTTATGTGCACCCTCTCGCGATCGGTGGCATAACCAATCGAGGATTCAGCTCTTGAGCTACCTGCCGAAAGGGGCGCGGCGACCTTAAGGGCGACATCTATATCTCGCATAGTGTGCAGAACTGCTTGTTCCTAGTCAC
DNA 2: GTGACTAGGAACAAGCAGTTCTGCACACTATGCGAGATATAGATGTCGCCCTTAAGGTCGCCGCGCCCCTTTCGGCAGGTAGCTCAAGAGCTGAATCCTCGATTGGTTATGCCACCGATCGCGAGAGGGTGCACATAAGCAGACTTGTTGAAC
B4: CTCF×4 (dsDNA)
DNA 1: ACTAGTGCTGCAGCGCCACCTGGCCTTGGAGATCCTGCAGCGCCACCTGGCCTTGGAGATCCTGCAGCGCCACCTGGCCTTGGAGATCTCCAAGGCCAGGTGGCGCTGCAGCCCCGGG
DNA 2: CCCGGGGCTGCAGCGCCACCTGGCCTTGGAGATCTCCAAGGCCAGGTGGCGCTGCAGGATCTCCAAGGCCAGGTGGCGCTGCAGGATCTCCAAGGCCAGGTGGCGCTGCAGCACTAGT
B5: F2177ΔC (dsDNA)
DNA 1: ATGCCTAAAAGTATGCAGAAATTTGTTCAACAAGTCTGCTTATGTGCACCCTCTCGCGATCGGTGGCATAACCAATCGAGGATTCAGCTCTTGAGCTACCTGCCGAAAGGGGCGCGGCAACCTTAAGCTTGCATAGTGTGCAGAACTGCTTGTTCCTAGTCAC
DNA 2: GTGACTAGGAACAAGCAGTTCTGCACACTATGCAAGCTTAAGGTTGCCGCGCCCCTTTCGGCAGGTAGCTCAAGAGCTGAATCCTCGATTGGTTATGCCACCGATCGCGAGAGGGTGCACATAAGCAGACTTGTTGAACAAATTTCTGCATACTTTTAGGCAT

Key:
[1] = target: T1, dCTCF zinc finger cluster (UniProt Q9VS55 294-614); assay: EMSA
T1 sequence: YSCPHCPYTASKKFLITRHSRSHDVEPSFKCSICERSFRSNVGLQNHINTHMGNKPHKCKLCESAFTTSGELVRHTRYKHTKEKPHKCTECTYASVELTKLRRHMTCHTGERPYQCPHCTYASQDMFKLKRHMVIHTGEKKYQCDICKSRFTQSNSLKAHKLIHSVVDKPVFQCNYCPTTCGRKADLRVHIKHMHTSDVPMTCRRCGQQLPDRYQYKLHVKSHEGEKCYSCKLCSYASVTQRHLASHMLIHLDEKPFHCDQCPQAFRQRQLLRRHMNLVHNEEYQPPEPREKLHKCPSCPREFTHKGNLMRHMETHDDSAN

[2] = target: T2, Su(Hw) zinc finger cluster (UniProt P08970 220-619); assay: EMSA
T2 sequence: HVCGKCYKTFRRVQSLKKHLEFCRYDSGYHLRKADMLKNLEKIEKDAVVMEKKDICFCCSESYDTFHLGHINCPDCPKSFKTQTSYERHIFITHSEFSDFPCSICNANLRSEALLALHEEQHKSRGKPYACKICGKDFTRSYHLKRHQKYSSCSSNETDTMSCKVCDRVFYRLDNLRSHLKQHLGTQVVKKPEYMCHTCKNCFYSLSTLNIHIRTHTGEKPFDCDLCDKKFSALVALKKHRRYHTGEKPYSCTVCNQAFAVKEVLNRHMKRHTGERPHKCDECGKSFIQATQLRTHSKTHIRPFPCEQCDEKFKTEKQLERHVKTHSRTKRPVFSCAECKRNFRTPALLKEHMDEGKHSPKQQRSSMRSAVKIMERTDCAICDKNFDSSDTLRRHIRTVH

Binder | binding result [1] | binding result [2]
B1 | binds | 
B2 | binds | binds
B3 | binds | no binding
B4 | binds | 
B5 | no binding | binds
